Laboratory results as given in US20060257938A1, “Method of screening for drugs that block ligand binding to a lipid binding protein” (priority 2005, published 2006).
“And” between values parts separate entries of the source, which are not always exact repeats. Equal values may be shown once.

How the values were obtained:
Type in all cases: binding
Details in all cases: response relative to ADIFAB2
[1] = Probe fluorescence ratio response to arachidonic acid relative to ADIFAB2
Method in brief: (§1)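 Each fatty acid's response was expressed relative to ADIFAB2, the rI-FABP-L72A probe, as ΔR/ΔRreference. ΔR is the change in the background-corrected two-wavelength intensity ratio R=Fλ1/Fλ2 from its analyte-free baseline R0. Emission was read near about 420-480 nm for unbound and about 495-580 nm for FFA-bound probe.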

[2] = Probe fluorescence ratio response to linolenic acid relative to ADIFAB2
Method in brief: as §1

[3] = Probe fluorescence ratio response to palmitic acid relative to ADIFAB2
Method in brief: as §1

[4] = Probe fluorescence ratio response to linoleic acid relative to ADIFAB2
Method in brief: as §1

[5] = Probe fluorescence ratio response to oleic acid relative to ADIFAB2
Method in brief: as §1

Molecule	DR/DR AA ([1]; Arachidonic acid)	DR/DR AA ([1]; arachidonic acid)	DR/DR LNA [2]	DR/DR PA [3]	DR/DR LA [4]	DR/DR OA [5]
73T, 72A (protein, listed as Rattus norvegicus, PEPTIDE (1)...(131) wild-type rat intestinal fatty acid binding protein) AFDGTWKVDRNENYEKFMEKMGINVVKRKLGAHDNLKLTITQEGNKFTVKESSNFRNIDVVFELGVDFAYSATDGTELTGTWTMEGNKLVGKFKRVDNGKELIAVREISGNELIQTYTYEGVEAKRIFKKE	0.87	0.872	0.77 and 0.765	0.62 and 0.621	0.77 and 0.768	0.78 and 0.778
74L, 72A (protein, listed as Rattus norvegicus, PEPTIDE (1)...(131) wild-type rat intestinal fatty acid binding protein) AFDGTWKVDRNENYEKFMEKMGINVVKRKLGAHDNLKLTITQEGNKFTVKESSNFRNIDVVFELGVDFAYSAALGTELTGTWTMEGNKLVGKFKRVDNGKELIAVREISGNELIQTYTYEGVEAKRIFKKE	0.22	0.222	0.40 and 0.404	0.36 and 0.361	0.30 and 0.305	0.19 and 0.188
78C2, 72A (protein, listed as Rattus norvegicus, PEPTIDE (1)...(131) wild-type rat intestinal fatty acid binding protein) AFDGTWKVDRNENYEKFMEKMGINVVKRKLGAHDNLKLTITQEGNKFTVKESSNFRNIDVVFELGVDFAYSAADGTECTGTWTMEGNKLVGKFKRVDNGKELIAVREISGNELIQTYTYEGVEAKRIFKKE	0.15	–	0.20	0.09	0.20	0.19
78A3, 72A (protein, listed as Rattus norvegicus, PEPTIDE (1)...(131) wild-type rat intestinal fatty acid binding protein) AFDGTWKVDRNENYEKFMEKMGINVVKRKLGAHDNLKLTITQEGNKFTVKESSNFRNIDVVFELGVDFAYSAADGTEATGTWTMEGNKLVGKFKRVDNGKELIAVREISGNELIQTYTYEGVEAKRIFKKE	0.48	–	0.50	0.25	0.44	0.41
74C, 72A (protein, listed as Rattus norvegicus, PEPTIDE (1)...(131) wild-type rat intestinal fatty acid binding protein) AFDGTWKVDRNENYEKFMEKMGINVVKRKLGAHDNLKLTITQEGNKFTVKESSNFRNIDVVFELGVDFAYSAACGTELTGTWTMEGNKLVGKFKRVDNGKELIAVREISGNELIQTYTYEGVEAKRIFKKE	0.83	–	0.74	0.29	0.71	0.56
74N, 72A (protein, listed as Rattus norvegicus, PEPTIDE (1)...(131) wild-type rat intestinal fatty acid binding protein) AFDGTWKVDRNENYEKFMEKMGINVVKRKLGAHDNLKLTITQEGNKFTVKESSNFRNIDVVFELGVDFAYSAANGTELTGTWTMEGNKLVGKFKRVDNGKELIAVREISGNELIQTYTYEGVEAKRIFKKE	1.62	–	1.57	1.38	1.44	1.52
74A, 72A (protein, listed as Rattus norvegicus, PEPTIDE (1)...(131) wild-type rat intestinal fatty acid binding protein) AFDGTWKVDRNENYEKFMEKMGINVVKRKLGAHDNLKLTITQEGNKFTVKESSNFRNIDVVFELGVDFAYSAAAGTELTGTWTMEGNKLVGKFKRVDNGKELIAVREISGNELIQTYTYEGVEAKRIFKKE	1.42	–	1.42	1.27	1.34	1.34
74T, 72A (protein, listed as Rattus norvegicus, PEPTIDE (1)...(131) wild-type rat intestinal fatty acid binding protein) AFDGTWKVDRNENYEKFMEKMGINVVKRKLGAHDNLKLTITQEGNKFTVKESSNFRNIDVVFELGVDFAYSAATGTELTGTWTMEGNKLVGKFKRVDNGKELIAVREISGNELIQTYTYEGVEAKRIFKKE	0.76	–	0.78	0.37	0.82	0.70
73W, 72A (protein, listed as Rattus norvegicus, PEPTIDE (1)...(131) wild-type rat intestinal fatty acid binding protein) AFDGTWKVDRNENYEKFMEKMGINVVKRKLGAHDNLKLTITQEGNKFTVKESSNFRNIDVVFELGVDFAYSAWDGTELTGTWTMEGNKLVGKFKRVDNGKELIAVREISGNELIQTYTYEGVEAKRIFKKE	1.77	–	1.93	1.05	1.89	1.66
73V, 72A (protein, listed as Rattus norvegicus, PEPTIDE (1)...(131) wild-type rat intestinal fatty acid binding protein) AFDGTWKVDRNENYEKFMEKMGINVVKRKLGAHDNLKLTITQEGNKFTVKESSNFRNIDVVFELGVDFAYSAVDGTELTGTWTMEGNKLVGKFKRVDNGKELIAVREISGNELIQTYTYEGVEAKRIFKKE	0.98	0.976	0.50 and 0.496	0.48 and 0.475	0.40 and 0.396	0.60 and 0.603
74Q, 72A (protein, listed as Rattus norvegicus, PEPTIDE (1)...(131) wild-type rat intestinal fatty acid binding protein) AFDGTWKVDRNENYEKFMEKMGINVVKRKLGAHDNLKLTITQEGNKFTVKESSNFRNIDVVFELGVDFAYSAAQGTELTGTWTMEGNKLVGKFKRVDNGKELIAVREISGNELIQTYTYEGVEAKRIFKKE	0.81	–	0.86	0.43	0.87	0.74
